# T1: Rv2034 (ArsR family regulator) (Mycobacterium tuberculosis) (UniProt O53478)
# T1 sequence: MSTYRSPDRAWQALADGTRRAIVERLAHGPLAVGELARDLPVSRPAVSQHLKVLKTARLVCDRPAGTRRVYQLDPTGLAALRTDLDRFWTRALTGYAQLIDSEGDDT
# T2: Rv2034ΔN28 del1-28 (Mycobacterium tuberculosis) (UniProt O53478)
# T2 sequence: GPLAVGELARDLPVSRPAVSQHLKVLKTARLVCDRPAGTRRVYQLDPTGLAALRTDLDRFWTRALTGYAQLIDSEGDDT
# T3: Rv2034 (ArsR family regulator) (Mycobacterium tuberculosis, UniProt O53478 1-107)
# T3 sequence: T1 sequence
# B1: Rv2034BSwt (dsDNA)
# DNA 1: GGAAGAATATCCGTAAGTCTAAACTTACGGTTCGTGTCCA
# DNA 2: TGGACACGAACCGTAAGTTTAGACTTACGGATATTCTTCC
# Experiments:
# [1] = target: T1, Rv2034 (ArsR family regulator) (Mycobacterium tuberculosis); test: EMSA
# [2] = target: T2, Rv2034ΔN28 del1-28 (Mycobacterium tuberculosis); test: EMSA
# [3] = target: T1, Rv2034 (ArsR family regulator) (Mycobacterium tuberculosis); test: competition
# [4] = target: T1, Rv2034 (ArsR family regulator) (Mycobacterium tuberculosis); test: DNase I footprinting
# [5] = target: T3, Rv2034 (ArsR family regulator); test: EMSA; 0.1-1.2 uM protein; conditions: protein: recombinant; tags: N-terminal His6 (pET28a); chain copies: 2; label: 5' label (32P or FITC); blunt
molecule,measurement,setting,value
ACTGTCTAGAGTTGGCGCATGTACACCTGAGCCGTCGGCTCGCCCACTGGACCCGGCTCTACCCCGAGGTGCGGGTGGATCGGGCCATCGCCGGCGGCAGTGCGTGCCGTCATCTGGCCGCCAACGCAAAGCCGGGTCAGCTGTTCGTCGCGGACTCACACTCCGCGCACGAATTGTGCGGTGCATACCAGCCCGGATGCGCCGTACTTACGGTACGCAGTGCCAACTTGTAGGGAGCGGATCTTGGGAGTGGTGCCCTGGAATTCATCT (double strand) [Rv3133cp (dosR promoter)],binding,[1],binds
AATTTCTAGAGCCTGCGGCAAGCACGTCGGTTCCATAGCGATCCAGCACGCCGCAATACTAGGGAGCCTCTCTGCCGGTCATCGCCGCGACGCGCCGCATGGGTTCTCGGAAAATGCTTGTACCAGTCGACTTTCCGGCGGGCCAACGTCGCCAACCGATACTCGGCTCCAACGCCATGGGTGACGGGATGCCCGGATCACGTGTCACACCACCCGCGCACCCTTGCGGAAGAATATCCGTAAGTCTAAACTTACGGTTCGAATTCCCGG (double strand) [Rv2034p promoter],binding,[2],no binding
same,binding,[1],binds
same,binding,[3],binds
GATAGAATTCTACCAGTCGACTTTCCGGCGGGCCAACGTCGCCAACCGATACTCGGCTCCAACGCCATGGGTGACGGGATGCCCGGATCACGTGTCACACCACCCGCGCACCCTTGCGGAAGAATATCCGTAAGTCTAAACTTACGGTTCGTGTCCACTTACAGATCACCGGATCGCGCTTGGCAGGCGCTGGCGGACGGCACTCGCCGGGCCATCGTGGAGCGGCTGGCGCATCTAGATGTC (double strand) [Rv2034p footprint fragment],binding,[4],binds
B1,binding result,[5],binds

# — publication PMC3338718, “Characterization of a Novel ArsR-Like Regulator Encoded by Rv2034 in Mycobacterium tuberculosis”
